# Experimental data reported in article PMC5402868.
# How the values were obtained:
# [1] = biological target: α-synuclein-YFP fusion protein (recombinant) (UniProt P37840); experiment: FRET or BRET
# [2] = biological target: α-synuclein-YFP transgene product in C. elegans (UniProt P37840); experiment: FRET or BRET
Substance,"mean YFP fluorescence lifetime in cells, day 4 [1] [ps]","mean YFP fluorescence lifetime, day 4 (oligomeric species) [1] [ps]",decrease of mean YFP fluorescence lifetime during ageing [2] [ps]
α-synuclein-YFP fusion protein (recombinant) (from UniProt P37840 1-140) (natural protein),1480,2960,–
α-synuclein-YFP transgene product in C. elegans (from UniProt P37840 1-140) (natural protein),–,–,130
